This is an account of results in paper PMC5694551, “Kir2.1-Nav1.5 Channel Complexes Are Differently Regulated than Kir2.1 and Nav1.5 Channels Alone” (Frontiers in Physiology, 2017).

In the test the target is T1, Nav1.5 channels of rat ventricular myocytes (rat (endogenous in ventricular myocytes), UniProt P15389 1-2019).
T1 construct: Nav1.5 sodium channel alpha subunit, endogenous at the membrane of Sprague-Dawley rat ventricular myocytes; source: endogenous, isolated rat ventricular myocytes (fixed, non-permeabilized)
T1 sequence (P15389 whole entry): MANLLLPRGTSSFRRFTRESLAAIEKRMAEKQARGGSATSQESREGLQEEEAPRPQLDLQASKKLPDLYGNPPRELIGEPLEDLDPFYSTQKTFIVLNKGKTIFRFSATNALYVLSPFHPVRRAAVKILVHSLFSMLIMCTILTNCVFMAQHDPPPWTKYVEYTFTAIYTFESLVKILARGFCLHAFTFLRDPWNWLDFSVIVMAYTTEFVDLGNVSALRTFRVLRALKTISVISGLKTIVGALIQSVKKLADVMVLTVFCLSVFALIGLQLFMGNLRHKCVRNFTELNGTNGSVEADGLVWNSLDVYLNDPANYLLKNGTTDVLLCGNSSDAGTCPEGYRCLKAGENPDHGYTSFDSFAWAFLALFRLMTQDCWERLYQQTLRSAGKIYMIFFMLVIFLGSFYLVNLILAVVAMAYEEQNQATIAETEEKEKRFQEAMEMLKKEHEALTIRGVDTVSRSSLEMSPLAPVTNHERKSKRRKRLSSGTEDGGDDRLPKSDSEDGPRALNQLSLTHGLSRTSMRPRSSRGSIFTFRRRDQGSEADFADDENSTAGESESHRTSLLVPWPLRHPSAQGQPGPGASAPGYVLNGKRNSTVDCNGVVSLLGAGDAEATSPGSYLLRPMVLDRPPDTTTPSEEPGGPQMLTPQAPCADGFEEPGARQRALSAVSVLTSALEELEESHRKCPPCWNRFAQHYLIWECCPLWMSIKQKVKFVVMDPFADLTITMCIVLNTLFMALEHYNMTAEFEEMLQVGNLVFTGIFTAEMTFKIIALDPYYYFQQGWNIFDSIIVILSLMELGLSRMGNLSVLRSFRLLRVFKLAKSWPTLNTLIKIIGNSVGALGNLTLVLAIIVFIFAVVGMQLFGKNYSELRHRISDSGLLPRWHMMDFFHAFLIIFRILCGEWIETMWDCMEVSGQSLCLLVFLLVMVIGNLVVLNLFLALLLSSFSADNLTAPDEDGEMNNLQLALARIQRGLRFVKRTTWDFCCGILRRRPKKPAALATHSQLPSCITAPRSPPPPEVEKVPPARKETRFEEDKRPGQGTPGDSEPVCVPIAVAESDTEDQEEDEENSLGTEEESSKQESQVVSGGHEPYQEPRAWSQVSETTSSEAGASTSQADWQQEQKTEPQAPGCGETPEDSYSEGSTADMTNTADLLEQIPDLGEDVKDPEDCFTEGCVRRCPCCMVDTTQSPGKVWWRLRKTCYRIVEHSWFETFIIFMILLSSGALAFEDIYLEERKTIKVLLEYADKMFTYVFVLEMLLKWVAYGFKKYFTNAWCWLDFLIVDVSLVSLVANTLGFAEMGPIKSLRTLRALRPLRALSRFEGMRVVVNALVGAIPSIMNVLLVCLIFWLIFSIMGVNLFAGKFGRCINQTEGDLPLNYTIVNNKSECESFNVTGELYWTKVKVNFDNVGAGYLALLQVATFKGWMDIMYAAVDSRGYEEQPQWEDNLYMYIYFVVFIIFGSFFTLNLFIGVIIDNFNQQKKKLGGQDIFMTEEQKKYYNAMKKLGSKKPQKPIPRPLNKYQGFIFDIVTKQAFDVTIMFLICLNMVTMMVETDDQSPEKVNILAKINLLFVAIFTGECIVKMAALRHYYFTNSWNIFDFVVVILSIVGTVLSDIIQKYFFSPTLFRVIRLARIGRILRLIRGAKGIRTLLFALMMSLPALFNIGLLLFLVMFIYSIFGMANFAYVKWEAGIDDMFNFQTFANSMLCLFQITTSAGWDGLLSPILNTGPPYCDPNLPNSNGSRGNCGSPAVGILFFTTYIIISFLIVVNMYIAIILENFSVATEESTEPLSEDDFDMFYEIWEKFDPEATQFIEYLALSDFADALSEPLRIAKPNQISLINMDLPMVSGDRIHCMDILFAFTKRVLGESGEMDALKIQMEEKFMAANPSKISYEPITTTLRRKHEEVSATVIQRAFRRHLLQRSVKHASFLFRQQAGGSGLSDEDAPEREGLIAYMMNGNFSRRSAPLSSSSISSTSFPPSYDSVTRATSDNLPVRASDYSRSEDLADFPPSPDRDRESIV
Put plainly: proximity ligation; Duolink PLA in fixed, non-permeabilized rat ventricular myocytes; primary antibodies against extracellular domains of Nav1.5 and Kir2.1; buffers without detergents; confocal microscopy; negative control without primary antibodies. The following applies: partners not purified.

B1: Kir2.1 channels of rat ventricular myocytes (natural protein, rat (endogenous in ventricular myocytes), UniProt Q64273 1-427, looked up)
chain: MGSVRTNRYSIVSSEEDGMKLATMAVANGFGNGKSKVHTRQQCRSRFVKKDGHCNVQFINVGEKGQRYLADIFTTCVDIRWRWMLVIFCLAFVLSWLFFGCVFWLIALLHGDLDASKESKACVSEVNSFTAAFLFSIETQTTIGYGFRCVTDECPIAVFMVVFQSIVGCIIDAFIIGAVMAKMAKPKKRNETLVFSHNAVIAMRDGKLCLMWRVGNLRKSHLVEAHVRAQLLKSRITSEGEYIPLDQIDINVGFDSGIDRIFLVSPITIVHEIDEDSPLYDLSKQDIDNADFEIVVILEGMVEATAMTTQCRSSYLANEILWGHRYEPVLFEEKHCYKVDYSRFHKTYEVPNTPLCSARDLAEKKYILSNANSFCYENEVALTSKEEEDSENGVPESTSTDSPPGIDLHNQASVPLEPRPLRRESEI
notes: Kir2.1 inward rectifier K+ channel, endogenous at the membrane of Sprague-Dawley rat ventricular myocytes; source: endogenous, isolated rat ventricular myocytes (fixed, non-permeabilized)
With B1, the “fold increase of the PLA fluorescence signal over the negative control (no primary antibodies)” value is around 6.5 fold.
